One assay relates to AtPRK6^LRR D234A. In words: In vitro pull-down with AtPRK6^LRR mutant D234A. It is filed as binding, Arabidopsis thaliana. Conditions: wild-type AtLURE1.2. The source says: (§1) The genes of AtPRK3 ^LRR (residues 1–241), AtPRK4 ^LRR (residues 1–277), AtPRK5 ^LRR (residues 1–279), AtPRK6 ^LRR (residues 1–262), MIK1 ^LRR (residues 1–633), MIK2 ^LRR (residues 1–707) were amplified from Arabidopsis cDNA library by PCR and cloned into pFastBac-1 vector with a C-terminal 6 × His-tag. Their identities were confirmed by sequencing. The mature form of AtLURE1.1 (residues 20–94), AtLURE1.2 (residues 20–90), AtLURE1.3 (residues 21–91), and AtLURE1.4 (residues 20–90) were cloned into pFastBac-1 vector, with a modified N-terminal hemolin signal peptide and 6 × His-SUMO tag. Point mutation constructs were generated by QuickChange Site-Directed Mutagenesis Kit (Strategene). All the proteins were expressed using the Bac-to-Bac baculovirus expression system (Invitrogen) in High Five cells at 22 °C. One liter of High Five cells (2.0 × 10^6 cells mL^−1) cultured in the medium from Expression Systems was infected with 25 ml recombinant baculovirus and the media was collected after 72 h of infection. Secreted LRR proteins were purified using Ni-NTA (Novagen) and size-exclusion chromatography (Hiload 200, GE Healthcare) in buffer containing 10 mM Bis-Tris pH 6.0 and 100 mM NaCl. […]
(§2) The purified His-tagged ectodomains of AtPRK proteins and MIK1, 2 were used to pull-down the AtLURE1.2 peptide. […] All the eluted samples were analyzed by SDS-PAGE and visualized by Coomassie blue staining. […]

Assay [1] concerns AtPRK6^LRR with mutations of other AtLURE1.2-interacting residues. In words: In vitro pull-down with other AtPRK6^LRR mutants. The format is binding, Arabidopsis thaliana. Conditions: mutations of other AtLURE1.2-interacting residues of AtPRK6^LRR.
Description: as §1, §2

The test system of another assay is MIK1^LRR. Kind of assay: Gel filtration assay with MIK1^LRR. The format is binding, Arabidopsis. The settings on record: 4 °C 30 min, 10 mM Bis-Tris pH 6.0, 100 mM NaCl.
Description: as §1, with “NaCl. The His-SUMO tag of the AtLURE proteins was removed by Prescission Protease at 4 °C overnight in buffer containing 25 mM Tris pH 8.0 and 150 mM NaCl.” for “NaCl.”
For orientation: SEC sorts molecules by how far they enter the pores of the column.

For assay [2], the target named is AtPRK6^LRR. In words: ITC, AtLURE1.2 titrated into AtPRK6^LRR. On the set-up: species or system Arabidopsis thaliana. The settings on record: MicroCalorimeter ITC200, 25 °C, 200 mM HEPES pH 7.0, 100 mM NaCl, ~0.9 mM AtLURE1.2 into 0.08 mM AtPRK6^LRR, 20 × 2 μl at 2.5-min intervals, insect cell proteins, read-out: dissociation constant / binding affinity.
Description: as §1, with “NaCl. The His-SUMO tag of the AtLURE proteins was removed by Prescission Protease at 4 °C overnight in buffer containing 25 mM Tris pH 8.0 and 150 mM NaCl.” for “NaCl.”
Background: Isothermal titration calorimetry measures the heat released or taken up as one component is titrated into another.

In the next assay the test system is MIK2^LRR. In words: Gel filtration assay with MIK2^LRR. It is filed as binding, Arabidopsis. The settings on record: 4 °C 30 min, 10 mM Bis-Tris pH 6.0, 100 mM NaCl.
Description: as §1, with “NaCl. The His-SUMO tag of the AtLURE proteins was removed by Prescission Protease at 4 °C overnight in buffer containing 25 mM Tris pH 8.0 and 150 mM NaCl.” for “NaCl.”

Assay [3] has as its system AtPRK6^LRR. In words: In vitro pull-down with AtPRK6^LRR. The format is binding, Arabidopsis thaliana. Conditions: Ni-NTA, excess AtLURE1.2, on ice 30 min, washed five times, 25 mM Tris pH 8.0, 150 mM NaCl; SDS-PAGE, Coomassie blue; repeated at least three times.
Description: The genes of AtPRK3 ^LRR (residues 1–241), AtPRK4 ^LRR (residues 1–277), AtPRK5 ^LRR (residues 1–279), AtPRK6 ^LRR (residues 1–262), MIK1 ^LRR (residues 1–633), MIK2 ^LRR (residues 1–707) were amplified from Arabidopsis cDNA library by PCR and cloned into pFastBac-1 vector with a C-terminal 6 × His-tag. Their identities were confirmed by sequencing. The mature form of AtLURE1.1 (residues 20–94), AtLURE1.2 (residues 20–90), AtLURE1.3 (residues 21–91), and AtLURE1.4 (residues 20–90) were cloned into pFastBac-1 vector, with a modified N-terminal hemolin signal peptide and 6 × His-SUMO tag. Point mutation constructs were generated by QuickChange Site-Directed Mutagenesis Kit (Strategene). All the proteins were expressed using the Bac-to-Bac baculovirus expression system (Invitrogen) in High Five cells at 22 °C. One liter of High Five cells (2.0 × 10^6 cells mL^−1) cultured in the medium from Expression Systems was infected with 25 ml recombinant baculovirus and the media was collected after 72 h of infection. Secreted LRR proteins were purified using Ni-NTA (Novagen) and size-exclusion chromatography (Hiload 200, GE Healthcare) in buffer containing 10 mM Bis-Tris pH 6.0 and 100 mM NaCl. The His-SUMO tag of the AtLURE proteins was removed by Prescission Protease at 4 °C overnight in buffer containing 25 mM Tris pH 8.0 and 150 mM NaCl. All AtLURE proteins were further cleaned by size-exclusion chromatography (Hiload 200, GE Healthcare). For co-expression of AtPRK6^LRR and AtLURE1, one liter of High Five cells were co-infected with 20 and 30 ml recombinant baculovirus of AtPRK6^LRR and AtLURE1, respectively. Secreted AtPRK6^LRR-AtLURE1 complexes were processed with Prescission Protease digestion and then purified as described above. Expression and purification procedures of all the mutants were essentially the same as those of AtPRK6^LRR and AtLURE1.2.
as §2

“Also recorded” adds a separate entry of the source.

B1: AtLURE1.2: mature form of AtLURE1.2 (residues 20–90), defensin-like cysteine-rich peptide expressed in insect cells (protein)
chain: TLINGSSDEERTYSFSPTTSPFDPRSLNQELKIGRIGYCFDCARACMRRGKYIRTCSFERKLCRCSISDIK
modifications: left off: His6, N-terminal, cleaved | SUMO, N-terminal, cleaved
notes: mature form of AtLURE1.2 (residues 20–90), defensin-like cysteine-rich peptide expressed in insect cells
Take B1: the figures for the “interaction in pull-down assay” value (in the assay on AtPRK6^LRR D234A; in assay [1]; in the assay with AtPRK6^LRR [3]) were “greatly compromised; also recorded: significantly compromised”, “much less striking effects” and “strongly interacted”, respectively. Besides, the “interaction in gel filtration” value in the assay on MIK1^LRR was “no interaction; also recorded: none of the purified AtPRK3^LRR, MIK1^LRR or MIK2^LRR proteins showed detectable interaction”; in the assay on MIK2^LRR it was “none of the purified AtPRK3^LRR, MIK1^LRR or MIK2^LRR proteins showed detectable interaction”. Further, the Kd on AtPRK6^LRR [2] is about 3000 nM.

Values taken from PMC5673899, “Structural basis for receptor recognition of pollen tube attraction peptides” (Nature Communications, 2017).
